Reference: patent US12365732 (23ANDME, dated 2025)

Molecular target: T1, hCD155 (Table 28) (human, UniProt P15151 21-343, limits assumed)
T1 sequence (looked up): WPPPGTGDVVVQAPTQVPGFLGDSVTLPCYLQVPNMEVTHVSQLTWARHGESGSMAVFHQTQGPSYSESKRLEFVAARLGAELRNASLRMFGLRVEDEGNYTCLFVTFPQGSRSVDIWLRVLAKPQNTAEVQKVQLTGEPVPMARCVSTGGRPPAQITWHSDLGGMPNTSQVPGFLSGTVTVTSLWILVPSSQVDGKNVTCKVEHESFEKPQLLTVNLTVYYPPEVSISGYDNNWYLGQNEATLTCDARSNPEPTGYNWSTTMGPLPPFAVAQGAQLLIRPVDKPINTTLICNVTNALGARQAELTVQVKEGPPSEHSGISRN
Experiment: SPR 25C, biotin-CD226-His captured, steady state fitting
Protocol: To determine the binding affinity to hu-CD226 and cy-CD226 of mAb1.v7.NGS8, h10G1, hCD155 and anti-hCD226 antibody DX11 (Abcam, cat #Ab33397), SPR measurement with a BIACORE™ 8K instrument was performed. Briefly, a 1:4 dilution of Biotin CAPture Reagent (GE Healthcare) into HBS-EP buffer (0.01 M HEPES pH 7.4, 0.15 M NaCl, 3 mM EDTA, 0.005% Surfactant P20) was applied to the chip at 2 µL/min flow rate. For the kinetics measurements, 5 µg/ml of biotinylated hu-CD226 His tag (Sino biological, cat #10565-H08H) and cy-CD226 His tag (Arco biosystems, cat #DN1-052H9) was captured at 10 µL/min to achieve ~50 response units in the second flow cell (FC2). FC1 was kept as a reference. Next, 3-fold serial dilutions of IgG in HBS-P buffer (0.01 M HEPES pH 7.4, 0.15 M NaCl, 0.005% surfactant P20) from low (1.3 nM) to high (1000 nM) concentration were injected (flow rate: 30 µL/min) at 25° C. The sensorgram was recorded and subject to reference and buffer subtraction before evaluating by BIACORE® 8K Evaluation Software (version 1.1.1.7442). Association rates ($kon$) and dissociation rates ($koff$) were calculated using a simple one-to-one Langmuir binding model. The equilibrium dissociation constant (K_D) value was calculated as the ratio of $koff/kon$. […]

Kd: 67.5 nM
B1: cy-CD226 His tag (receptor, cynomolgus monkey)
chain: EEVLWHTSVPFAENMSLECVYPSVGILTQVEWFKIGTEKDSIAIFSPTHGMVIRKPYAERVYFLNSTMASNNMTLFFRNASEDDVGYYSCSLYTYPQGTWQKVIQVVQSDGFEAAVPPNSHIVSEPGKNITLTCQPQMTWPVQEVRWEKVQPHQIDLLTYCDLVHGRNFTSKFPRQIVSNCSHGSWSFIVVPDVTASDSGLYRCHLQASAGENETFVMRLTVAEGQTDN
modifications: biotinylated
